Results: patent US20110110945A1, “Immunoglobulin Fusion Proteins and Methods of Making” (TransTech Pharma, Inc., priority 2007, published 2011)
Entries after “also recorded” stand apart in the source; their conditions may differ.

Columns and labels:
[1] = target: T1, amyloid-beta (Amyloid Beta (1-40)) (Homo sapiens, UniProt P05067); experiment: In vitro ligand binding assay (ELISA), immobilized amyloid-beta; conditions: ligand 5 micrograms per well; dilutions of initial fusion protein solution; FIG. 7
T1 construct: Amyloid Beta (1-40) from Biosource; purchased Biosource
Method: (§1) For example, the fusion protein may be used in a binding assay to identify potential ligands that bind to the non-immunoglobulin protein. In one example embodiment of such a binding assay, a known ligand may coated onto a solid substrate (e.g., Maxisorb plates) at a biologically relevant concentration (e.g., about 5 micrograms per well), where each well contains a total volume of about 100 microliters (μL). The plates may be incubated at 4° C. overnight to allow the ligand to bind to the substrate. Alternatively, shorter incubation periods at higher temperature (e.g., room temperature) may be used. After a period of time to allow for the ligand to bind to the substrate, the assay wells may be aspirated and a blocking buffer (e.g., 1% BSA in 50 mM imidizole buffer, pH 7.2) may be added to block nonspecific binding. […] The fusion protein bound to the immobilized ligand may be detected in a variety of ways. […] The bound complex may be detected by adding a substrate for the secondary antibody complex, e.g., the alkaline phosphatase substrate, para-nitrophenylphosphate (PNPP), and measuring conversion of PNPP to para-nitrophenol (PNP) as an increase in absorbance at 405 nm. […] In the absence of ligand (i.e., coating with only BSA) there was no increase in absorbance. The binding assay of the present invention may be used to quantify ligand binding. […]

S100b = target: T2, S100b (Homo sapiens, UniProt P04271); experiment: In vitro ligand binding assay (ELISA), immobilized S100b; conditions: ligand 5 micrograms per well; dilutions of initial fusion protein solution; FIG. 7
T2 sequence (P04271 1-92): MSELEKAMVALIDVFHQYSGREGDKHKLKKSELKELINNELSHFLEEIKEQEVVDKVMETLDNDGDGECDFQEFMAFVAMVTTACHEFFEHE
Method: as §1

[2] = system: S100b/RAGE-induced production of TNF-α in THP-1 cells; experiment: Inhibition of S100b/RAGE-induced production of TNF-α in THP-1 cells; type: cell-based; conditions: 10 μg protein, FIG. 10
Description: One embodiment of a use of a RAGE fusion protein of the present invention to modulate expression of the cellular effector TNF-α is shown in FIG. 10. THP-1 myeloid cells may be cultured in RPMI-1640 media supplemented with 10% FBS and induced to secrete TNF-α via stimulation of RAGE with S100b. When such stimulation occurs in the presence of a RAGE fusion protein of the invention, induction of TNF-α by S100b binding to RAGE may be inhibited.
Previous work has shown that the myeloid THP-1 cells may secrete TNF-α in response to RAGE ligands. In this assay, THP-1 cells were cultured in RPMI-1640 media supplemented with 10% FBS using a protocol provided by ATCC. […] The amount of TNF-α secreted by the THP-1 cells was measured 24 hours after the addition of the proteins to the cell culture using a commercially available ELISA kit for TNF-α (R&D Systems, Minneapolis, Minn.).

[3] = Pharmacokinetic profile of TTP-4000 after IV injection; type: in vivo, monkeys; conditions: single IV bolus 5 mg/kg; plasma; once TTP-4000 has saturated its ligands; 2 animals; FIG. 11
Method: Following collection, the tubes were placed on wet ice (maximum 30 minutes) until centrifugation under refrigeration (at 2 to 8° C.) at 1500×g for 15 minutes. Each harvested plasma sample was then stored frozen (−70° C.±10° C.) until assayed for RAGE polypeptide using an ELISA at various time-points following the injection, as described in Example 6.
In FIG. 11 each curve represents a different animal under the same experimental conditions.
Initially, 50 uL of the RAGE specific monoclonal antibody 1HB1011 at a concentration of 10 ug/mL in 1×PBS pH 7.3 is coated on plates via overnight incubation. When ready for use, plates are washed three times with 300 uL of 1× Imidazole-Tween wash buffer and blocked with 1% BSA. […] The samples are allowed to incubate at room temperature for one hour. After incubation, the plates are plates are washed three times. A Goat Anti-human IgG1 1 (Sigma A3312) AP conjugate in 1×PBS with 1% BSA is added and allowed to incubate at room temperature for 1 hour. The plates are washed three times. Color was elucidated with paranitrophenylphosphate.

[4] = system: male C57BL/6 mice, cerebral ischemia/reperfusion; experiment: Animal model of stroke (ischemia and reperfusion, infarct volume); type: in vivo; conditions: mouse stroke model
Method: In this model, the middle carotid artery of a mouse is ligated and then reperfused to form an infarct.
In this model, the middle carotid artery of a mouse was ligated for 1 hour followed by 23 hours of reperfusion at which point the mice were sacrificed and the area of the infarct in the brain was assessed.
Mice were injected intraperitoneally, 1 hour after the initiation of ischemia. Mice were subjected to one hour of cerebral ischemia followed by 24 hours of reperfusion. To induce ischemia, each mouse was anesthetized and body temperature was maintained at 36-37° C. by external warming. The left common carotid artery (CCA) was exposed through a midline incision in the neck. […] After the nylon suture had been in place for 1 hour, the animal was re-anesthetized, rectal temperature was recorded and the suture was removed and the incision closed.
Infarct volume was determined by anesthetizing the animals with an intraperitoneal injection of sodium pentobarbital (50 mg/kg) and then removing the brains. […] The infarct area in each section was determined with a computer-assisted image analysis system, consisting of a Power Macintosh computer equipped with a Quick Capture frame grabber card, Hitachi CCD camera mounted on a camera stand. […] The images were captured and the total area of infarct was determined over the sections. […] The results are expressed as the mean±standard deviation (SD). […]

T1 sequence (P05067 672-711 limits assumed): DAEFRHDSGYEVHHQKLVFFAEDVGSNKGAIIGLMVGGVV
Method for Fc receptor: Fc receptor activation was measured by measuring TNF-α secretion from THP-1 cells that express the Fc receptor. […] Fc stimulation results in TNF-α secretion. The amount of TNF-α was measured by an Enzyme Linked Immunoabsorbent Assay (ELISA).
Thus, in this assay, the myeloid cell line, THP-1 (ATTC #TIB-202) was maintained in RPMI-1640 media supplemented with 10% fetal bovine serum per ATCC instructions. […] The amount of TNF-alpha secreted by the THP-1 cells was measured in supernatants collected from 24 hours cultures of cells in the treated wells using a commercially available TNF ELISA kit (R&D Systems, Minneapolis, Minn. #DTA00C) per instructions.

B1: TTP-4000: RAGE fusion protein: V and C1 domains of human RAGE (amino acids 1-251) linked to hinge-less CH2 and CH3 of human IgG1; SEQ ID NO: 16/18 (protein)
chain 1: MAAGTAVGAWVLVLSLWGAVVGAQNITARIGEPLVLKCKGAPKKPPQRLEWKLNTGRTEAWKVLSPQGGGPWDSVARVLPNGSLFLPAVGIQDEGIFRCQAMNRNGKETKSNYRVRVYQIPGKPEIVDSASELTAGVPNKVGTCVSEGSYPAGTLSWHLDGKPLVPNEKGVSVKEQTRRHPETGLFTLQSELMVTPARGGDPRPTFSCSFSPGLPRHRALRTAPIQPRVWEPVPLEEVQLVVEPEGGAVAPPSVFLFPPKPKDTLMISRTPEVTCVVVDVSHEDPEVKFNWYVDGVEVHNAKTKPREEQYNSTYRVVSVLTVLHQDWLNGKEYKCKVSNKALPAPIEKTISKAKGQPREPQVYTLPPSRDELTKNQVSLTCLVKGFYPSDIAVEWESNGQPENNYKTTPPVLDSDGSFFLYSKLTVDKSRWQQGNVFSCSVMHEALHNHYTQKSLSLSPGK
chain 2: ENITARIGEPLVLKCKGAPKKPPQRLEWKLNTGRTEAWKVLSPQGGGPWDSVARVLPNGSLFLPAVGIQDEGIFRCQAMNRNGKETKSNYRVRVYQIPGKPEIVDSASELTAGVPNKVGTCVSEGSYPAGTLSWHLDGKPLVPNEKGVSVKEQTRRHPETGLFTLQSELMVTPARGGDPRPTFSCSFSPGLPRHRALRTAPIQPRVWEPVPLEEVQLVVEPEGGAVAPPSVFLFPPKPKDTLMISRTPEVTCVVVDVSHEDPEVKFNWYVDGVEVHNAKTKPREEQYNSTYRVVSVLTVLHQDWLNGKEYKCKVSNKALPAPIEKTISKAKGQPREPQVYTLPPSRDELTKNQVSLTCLVKGFYPSDIAVEWESNGQPENNYKTTPPVLDSDGSFFLYSKLTVDKSRWQQGNVFSCSVMHEALHNHYTQKSLSLSPGK
modifications: synthetic four domain RAGE-Fc IgG fusion protein; synthetic four domain RAGE-Fc IgG fusion protein having signal sequence removed
binding to immobilized amyloid-beta (increase in absorbance at 405 nm) [1]: able to bind; also recorded: specifically interact
binding to immobilized S100b (increase in absorbance at 405 nm) (S100b): able to bind; also recorded: specifically interact
reduction of S100b induction of TNF-α ([2]; S100b 0.1 mg/ml FAC, TNF-α ELISA at 24 hours): ~70%
S100b induction of TNF-α, result in words ([2]; S100b 0.1 mg/ml): at least as effective
stimulation of TNF-α release from cells, in words (Fc receptor): does not stimulate TNF-α release
terminal half-life [3]: greater than 300 hours
reduction in infarct volume / area of infarct compared to sRAGE, in words [4]: significantly greater reduction in infarct volume; also recorded: more efficacious than sRAGE
